Experimental data published in patent US20220267402A1 (SERPENTIDE, published 2022).

Key:
[1] = molecular target: human GLP1 receptor (on HEK293-CNG-HuGLP1R stable cells) (human) (UniProt P43220); assay: cell-based or functional assay
[2] = molecular target: human GLP1 receptor (on HEK293-CNG-HuGLP1R stable cells) (human, UniProt P43220 24-463); assay: cell-based or functional assay

Molecule: Eli Lilly Trulicity (Lot#02448599) (Fc fusion)
- EC50, cAMP bioassay on HEK293-CNG-HuGLP1R cells [1]: 22 nM

B1: p9: hGLP1R ECD (1-116)-3xG4S-RGER-Trulicity (lot U2243DL140-14/P9EA001) (Fc fusion)
chain: RPQGATVSLWETVQKWREYRRQCQRSLTEDPPPATDLFCNRTFDEYACWPDGEPGSFVNVSCPWYLPWASSVPQGHVYRFCTAEGLWLQKDNSSLPWRDLSECEESKGGGGSGGGGSGGGGSRGERHGEGTFTSDVSSYLEEQAAKEFIAWLVKGGGGGGGSGGGGSGGGGSAESKYGPPCPPCPAPEAAGGPSVFLFPPKPKDTLMISRTPEVTCVVVDVSQEDPEVQFNWYVDGVEVHNAKTKPREEQFNSTYRVVSVLTVLHQDWLNGKEYKCKVSNKGLPSSIEKTISKAKGQPREPQVYTLPPSQEMTKNQVSLTCLVKGFYPSDIAVEWESNGQPENNYKTTPPVLDSDGSFFLYSRLTVDKSRWQEGNVFSCSVMHEALHNHYTQKSLSLSLG
- EC50, cAMP bioassay on HEK293-CNG-HuGLP1R cells (after Factor Xa predigestion) [2]: 17.6 nM
